# Results published in patent US20250388694A1 (BOOSTIMMUNE, published 2025).
# Changes are numbered by the printed parent chain.
# T1: Human TCTP (translationally controlled tumor protein) (human, UniProt P13693 1-172)
# T1 construct: also called HRF; Tpt1
# T1 sequence: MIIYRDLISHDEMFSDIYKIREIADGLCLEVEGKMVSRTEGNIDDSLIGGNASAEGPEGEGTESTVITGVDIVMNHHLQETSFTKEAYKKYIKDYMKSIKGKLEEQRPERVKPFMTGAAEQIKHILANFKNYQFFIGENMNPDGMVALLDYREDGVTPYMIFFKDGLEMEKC
# T2: mouse TCTP (mouse, UniProt P63028 1-172)
# T2 sequence (looked up): T1 sequence with M13L, N42A, I67V, I99L, R107K, K130N, Y159F
# B1: Ab14 (antibody, V domains shown)
# VH: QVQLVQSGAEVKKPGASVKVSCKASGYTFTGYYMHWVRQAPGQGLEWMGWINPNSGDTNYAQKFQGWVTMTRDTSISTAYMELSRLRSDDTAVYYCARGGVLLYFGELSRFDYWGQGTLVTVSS
# VL: QSALTQPPSASGSPGQSVAISCTGTSSDVGGYNYVSWYQQHPGKAPQLLIYEVTKRPSGVPDRFSGSKSGNTASLTVSGLQAEDEADYYCASYAGDNNLVFGGGTKLTVL
# notes: also called antibody Ab14
# B2: Ab15 (antibody, V domains shown)
# VH: QVQLVQSGAEVKKPGASVKLSCKAAGYTFTVNAMHWVRQAPGQGLEWMGWINAGTGKTKYSQKFQGRLTITRDTSASTAYMHLSGLRSEDTAVYYCARGRAVAFDPWGQGTLVTVSS
# VL: B1 VL with A19T, N33D, G43D, Q47K, L49M, T54N, A91N, D96N
# notes: also called antibody Ab15
# B3: Ab4 (antibody, V domains shown)
# VH: QVQLVQSGAEVKKPGASVKVSCKASGYTFTSNAMHWVRQAPGQRLEWMGWINAGNGNTKYSQKFQGRVTITRDTSASTAYMELSSLRSEDTAVYYCARGYYDILTGYYTTDAFDIWGQGTMVTVSS
# VL: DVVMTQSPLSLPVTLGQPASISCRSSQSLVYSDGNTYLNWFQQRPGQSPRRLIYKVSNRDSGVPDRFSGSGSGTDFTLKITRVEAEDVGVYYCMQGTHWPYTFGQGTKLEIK
# notes: From Beacon screening; also called antibody Ab4
# B4: Ab18 (antibody, V domains shown)
# VH: QVQLQQSGPGLVKPSQTLSLTCAISGDSVSSNSAAWNWIRQSPSRGLEWLGRTYYRSKWYNDYAVSVKSRITINPDTSKNQFSLQLNSVTPEDTAVYYCARGGAAVFDYWGQGTLVTVSS
# VL: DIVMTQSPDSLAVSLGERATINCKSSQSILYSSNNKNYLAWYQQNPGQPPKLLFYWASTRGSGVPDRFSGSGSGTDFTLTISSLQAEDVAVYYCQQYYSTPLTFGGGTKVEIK
# notes: also called antibody Ab18
# B5: Ab17 (antibody, V domains shown)
# VH: B4 VH with R56K, I71M, A104S
# VL: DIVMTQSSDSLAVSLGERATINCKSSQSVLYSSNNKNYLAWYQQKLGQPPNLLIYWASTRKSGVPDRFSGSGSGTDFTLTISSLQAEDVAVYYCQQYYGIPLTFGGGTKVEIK
# notes: also called antibody Ab17
# B6: Ab13 (antibody, V domains shown)
# VH: B4 VH
# VL: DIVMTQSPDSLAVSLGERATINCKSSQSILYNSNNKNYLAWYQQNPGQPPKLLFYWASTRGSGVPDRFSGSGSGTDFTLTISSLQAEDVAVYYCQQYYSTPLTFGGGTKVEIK
# notes: also called antibody Ab13
# B7: Ab10-1 (antibody, V domains shown)
# VH: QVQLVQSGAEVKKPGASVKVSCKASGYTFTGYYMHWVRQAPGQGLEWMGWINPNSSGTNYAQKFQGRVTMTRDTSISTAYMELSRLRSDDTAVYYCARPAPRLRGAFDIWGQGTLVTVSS
# VL: QSVVTQPPSVSAAPGQKVTISCSGSSSNIGNKKVSWYQQLPVTAPKLLIYDDNKRPSGIPDRFSGSKSGTSATLGITGLQTGDEADYYCATWDSSLRAVVFGGGTKLTVL
# notes: Single-residue CDR mutant of Ab10; also called antibody Ab10-1; mutant of Ab10
# B8: Ab10-3 (antibody, V domains shown)
# VH: not shown
# VL: B7 VL
# notes: Single-residue CDR mutant of Ab10; also called antibody Ab10-3; mutant of Ab10
# B9: Ab10-2 (antibody, V domains shown)
# VH: not shown
# VL: B7 VL
# notes: Single-residue CDR mutant of Ab10; also called antibody Ab10-2; mutant of Ab10
# B10: Ab10-6 (antibody, V domains shown)
# VH: not shown
# VL: B7 VL with N31T
# notes: Single-residue CDR mutant of Ab10; also called antibody Ab10-6; mutant of Ab10
# B11: Ab10-9 (antibody, V domains shown)
# VH: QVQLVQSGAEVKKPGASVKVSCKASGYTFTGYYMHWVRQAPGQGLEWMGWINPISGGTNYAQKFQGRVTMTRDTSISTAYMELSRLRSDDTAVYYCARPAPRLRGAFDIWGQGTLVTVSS
# VL: B7 VL
# notes: Mutant of Ab10 made to prevent post-translational modification; also called antibody Ab10-9; mutant of Ab10
# B12: Ab10-5 (antibody, V domains shown)
# VH: not shown
# VL: B7 VL
# notes: Single-residue CDR mutant of Ab10; also called antibody Ab10-5; mutant of Ab10
# B13: Ab10-4 (antibody, V domains shown)
# VH: not shown
# VL: B7 VL
# notes: Single-residue CDR mutant of Ab10; also called antibody Ab10-4; mutant of Ab10
# B14: Ab10-8 (antibody, V domains shown)
# VH: not shown
# VL: B7 VL with A90V
# notes: Single-residue CDR mutant of Ab10; also called antibody Ab10-8; mutant of Ab10
# B15: Ab10-10 (antibody, V domains shown)
# VH: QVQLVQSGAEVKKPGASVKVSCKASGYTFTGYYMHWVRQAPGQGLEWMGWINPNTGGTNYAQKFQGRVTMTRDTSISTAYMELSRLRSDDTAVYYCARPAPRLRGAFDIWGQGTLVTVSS
# VL: B7 VL
# notes: Mutant of Ab10 made to prevent post-translational modification; also called antibody Ab10-10; mutant of Ab10
# B16: Ab10-7 (antibody, V domains shown)
# VH: not shown
# VL: B7 VL with K32F
# notes: Single-residue CDR mutant of Ab10; also called antibody Ab10-7; mutant of Ab10
# B17: Ab5 (antibody, V domains shown)
# VH: QVQLVQSGAEVKKPGASVKVSCKASGYIFISYAMHWVRQAPGQRLEWMGWINAGNGYTEYSQKFQGRVTITRDTSALTAYMELRSLRSEDTAVYYCARRGYFDWWAFDYWGQGTLVTVSS
# VL: EIVLTQSPDFQSVTPKEKVTITCRASQSIGSSLHWYQQKPDQSPKLLIKYASQSFSGVPSRFSGSGSGTDFTLTINSLEAEDAATYYCHQSSSLPQTFGQGTKVEIK
# notes: From Beacon screening; also called antibody Ab5
# B18: Ab6 (antibody, V domains shown)
# VH: QVQLQESGPGLVKPSGTLSLTCAVSGGSISSSNWWSWVRQPPGKGLEWIGEIDHSGTTTYNPSLKSRVTMSVDQSKNQFSLKLSSVTAADTAVYYCARDGSGSYEGYWGQGTLVTVSS
# VL: DIQMTQSPSSLSASVGDRVTITCRASQAISNHLAWFQQKPGKAPKSLIYAASSLQSGVPSKFSGSGSGTDFTLTISSLQPEDFATYYCQQYHSYPITFGQGTRLEIK
# notes: From Beacon screening; also called antibody Ab6
# B19: Ab7 (antibody, V domains shown)
# VH: QVQLQESGPGLVKPSETLSLTCAVSGGSISSSNWWSWVRQPPGKGLEWIGEIYHGVTTYNPSLKSRVTISVDNSKNQFSLKLSSVTAADTAVYYCARDGSGSYEGYWGQGTLVTVSS
# VL: B18 VL with A28D, H32Y, S93Y
# notes: From Beacon screening; also called antibody Ab7
# B20: Ab12 (antibody, V domains shown)
# VH: QVQLVQSGAEVKKPGASVKVSCKASGYTFTSHAVHWVRQAPGQRLEWMGWINAGKGNTKYSQKFQGRVTITRDTSATTAYMELSSLRSEDTAVYYCARGRAVAFDPWGQGTLVTVSS
# VL: RSALTQPPSASGSPGQSVTVSCTGTNSDIGGYNYVSWYKQHPGNAPKLMIYEVNKRPSGVPDRFSGSKSGNTASLTVSGLQTEDEADYYCASYAGDNNLVFGGGTKLTVL
# notes: also called antibody Ab12
# B21: Ab9 (antibody, V domains shown)
# VH: QVQLQQSGPGLVKPSQTLSLTCAISGDSVSSNSAAWNWIRQSPSRGLEWLGRTYYRSKWYNDYAVSVKSRITINPDTSKNQFSLQLNSVTPEDTAVYYCAREGITVGRGVMLYFDLWGRGTLVTVSS
# VL: DVLMTQSPLSLPVTLGQPASISCRSSQSLVYSDGNTHLKWFQQRPGQSPRRLIYKVSKWDSGVPDRVSGSGSGTDFTLKISRVEAEDVGVYYCMQGTHWPPTFGQGTKVEIK
# notes: From Beacon screening; also called antibody Ab9
# B22: Ab8 (antibody, V domains shown)
# VH: QVQLVQSGAEVKKPGASVKVSCKASGYTFFSYAMHWVRQAPGQRLEWMGWINAGNGNTKYSQKFQDRVTITRDTSATTAYMELSSLRSEDTAVYYCASWVFDYWGQGTPVTVSS
# VL: DIVMTQTPLSSLVTLGQPASISCRSSQSLVHRDGNTYLSWLQQRPGQPPRLLIYKISNRFFGVPDRFSGSGAGTDFTLKISRVEAEDVGVYYCMQATQFPHTFGQGTKLEIK
# notes: From Beacon screening; also called antibody Ab8
# B23: Ab19 (antibody, V domains shown)
# VH: QVQLQQSGPGLVKPSQTLSLTCAISGDSVSSSSAAWNWIRQSPSRGLEWLGRTYYRSKWYNDYAESVKSRITINPDTSKNQFSLQLNSVTPEDTAVYYCARRLTIVRGVMRGGMDVWGQGTTVTVSS
# VL: DIVMTQSPDSLAVSLDERATINCKSSQNLLYSANNKDYLAWYQQKPGQPPKLLIYWASTRYSGIPDRFSGSGSGTDFTLTISSLQAEDVAVYYCQQYYSTPWTFGQGTKVEIK
# notes: also called antibody Ab19
# B24: Ab20 (antibody, V domains shown)
# VH: B23 VH with Y54F, P75A
# VL: B23 VL with A12T, V13G, L39I, P49S, T59I, I64V, Y98F
# notes: also called antibody Ab20
# What was measured:
# [1] = target: T1, Human TCTP (translationally controlled …); experiment: ELISA, human TCTP coated at 1 µg/ml, antibody titrated, OD 450 nm
# Experimental: ELISA was carried out to quantitatively analyze the binding capacity of selected antibodies to antigens. To this end, human TCTP was attached to an ELISA plate at a concentration of 1 μg/ml and then treated with antibodies of various concentrations to check the relative binding capacity. As a result of the measurement, all of antibodies Ab1, Ab2, Ab3, Ab4, Ab5, Ab6, Ab7, Ab8, Ab9, Ab12, Ab13, Ab14, Ab15, Ab17, Ab18, Ab19, Ab20, Ab21, and Ab22 were confirmed to bind well to human TCTP (FIGS. 1a and 1b).
# [2] = target: T1, Human TCTP (translationally controlled …); experiment: SPR, Biacore 8K, human TCTP immobilised on CM5 chip, antibody as analyte, 1:1 model
# Experimental: The antigen binding capacity of antibodies selected in Example 1 was analyzed using a SPR technique. The device used was Biacore 8K (Ge Healthcare). Human TCTP was immobilized on a chip, and antibodies were shed at 6 or 7 different concentrations. A CM5 chip (GE Healthcare, Cat. 29-1275-56), a regeneration buffer (10 mM glycine-HCl (GE Healthcare)), and a driving buffer HBS-EP+, and the like were used. For kinetic analysis, the binding time was set to 100 or 120 seconds, the flow rate was set to 30 or 50 μl/min in the binding phase, and in the dissociation phase, the dissociation time was set to 300 or 360 seconds, and the flow rate was set to 30 or 50 μl/min. The fitting was carried out using a 1:1 combined model, and BIACore Evaluation Software (GE healthcare) was used as the evaluation software.
# [3] = target: T1, Human TCTP (translationally controlled …); experiment: ELISA on human TCTP, binder titrated as scFv (axis [scFv] Log(nM)), OD450 [panel Human TCTP]
# mouse TCTP = target: T2, mouse TCTP; experiment: ELISA on mouse TCTP, binder titrated as scFv (axis [scFv] Log(nM)), OD450 [panel Mouse TCTP]
# [4] = target: T1, Human TCTP (translationally controlled …); experiment: competition ELISA: human TCTP coated at 1 µg/ml, 150 nM TLR2 plus titrated antibody, bound TLR2 detected; % inhibition of TLR2-TCTP binding
binder,measurement,setting,value
B1,binding result,[1],binds
B2,binding result,[1],binds
B3,binding result,[1],binds
B4,binding result,[1],binds
B5,Kd,[2],1.23 nM
B6,EC50 (read off the curve),[1],~0.01 µg/mL
B7,EC50 (read off the curve),[3],~8 nM
same,binding result,mouse TCTP,binds
B8,EC50 (read off the curve),mouse TCTP,~5 nM
same,IC50 (read off the curve),[4],~20 nM
B9,binding result,[3],binds
same,binding result,mouse TCTP,binds
B10,EC50 (read off the curve),[3],~1 nM
same,EC50 (read off the curve),mouse TCTP,~9 nM
B11,binding result,[3],binds
same,binding result,mouse TCTP,binds
B12,binding result,[3],binds
same,binding result,mouse TCTP,binds
B13,binding result,[3],binds
same,binding result,mouse TCTP,binds
B14,binding result,[3],binds
same,binding result,mouse TCTP,binds
B15,binding result,[3],binds
same,binding result,mouse TCTP,binds
B16,EC50 (read off the curve),[3],~20 nM
same,binding result,mouse TCTP,binds
B17,binding result,[1],binds
B18,Kd,[2],72.8 nM
B19,Kd,[2],107 nM
B20,Kd,[2],0.168 nM
same,IC50 (read off the curve),[4],~10 nM
B21,binding result,[1],binds
B22,EC50 (read off the curve),[1],~0.02 µg/mL
same,Kd,[2],14 nM
same,IC50 (read off the curve),[4],~6 nM
B23,Kd,[2],2.77 nM
B24,Kd,[2],0.704 nM
same,IC50 (read off the curve),[4],~10 nM
